Drawing on patent US20080138349A1, this text covers Koff WT/Koff mutant, Ratio of Affinities CD16A F158/CD32B and Ratio of Affinities CD16A V158/CD32B for twelve substances.

Experiment [1] has as its target FcγRIIB (CD32B), soluble dimeric Fc fusion (human) (UniProt P31994). As to the kind of experiment: Biacore SPR.
Experiment [2] concerns the target FcγRIIIA 158F (CD16A F158), soluble monomer (human) (UniProt P08637). As to the kind of experiment: Biacore SPR.
Experiment [3] has as its target FcγRIIIA 158V (CD16A V158), soluble monomer (human) (UniProt P08637). As to the kind of experiment: Biacore SPR.
For experiment [4], the target named is FcγRIIIA 158F (CD16A F158), soluble monomer (human) (UniProt P08637). The experiment is described as follows: Biacore SPR; value on CD16A over value on CD32B.
Chain of FcγRIIIA 158F (CD16A F158), soluble monomer (human) (P08637 17-208): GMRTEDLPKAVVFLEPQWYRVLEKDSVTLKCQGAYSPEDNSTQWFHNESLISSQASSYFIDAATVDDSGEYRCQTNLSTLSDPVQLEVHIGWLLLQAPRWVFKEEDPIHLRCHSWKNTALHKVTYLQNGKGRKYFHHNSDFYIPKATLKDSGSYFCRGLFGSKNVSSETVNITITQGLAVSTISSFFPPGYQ
The target of experiment [5] is FcγRIIIA 158V (CD16A V158), soluble monomer (human) (UniProt P08637). As to the kind of experiment: Biacore SPR; value on CD16A over value on CD32B.
Chain of FcγRIIIA 158V (CD16A V158), soluble monomer (human) (P08637 17-208 F176V): as the sequence (P08637 17-208) above, with F160V counted along it

Chain of FcγRIIB (CD32B), soluble dimeric Fc fusion (human) (P31994 43-217): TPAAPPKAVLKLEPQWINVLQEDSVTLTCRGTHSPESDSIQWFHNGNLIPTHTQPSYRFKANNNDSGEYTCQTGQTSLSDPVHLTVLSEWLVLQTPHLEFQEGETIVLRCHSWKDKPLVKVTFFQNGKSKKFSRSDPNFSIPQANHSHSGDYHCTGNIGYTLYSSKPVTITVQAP

With “Immunoglobulin with variant Fc region G316D R416G D270E P396L (antibody)”, the Koff WT/Koff mutant in experiment [1] was 1.07; in experiment [2] it was 0.94; in experiment [3], 1.22. For the same substance, the Ratio of Affinities CD16A F158/CD32B in experiment [4] is 0.88. In experiment [5], the Ratio of Affinities CD16A V158/CD32B was determined as 1.14.
For the substance “Immunoglobulin with variant Fc region K392T P396L (antibody)”, the values for the Koff WT/Koff mutant in experiment [1], in experiment [2] and in experiment [3] were 2.35, 1.81 and 1.49, respectively. Moreover, the Ratio of Affinities CD16A F158/CD32B in experiment [4] came to 0.77. In addition, the Ratio of Affinities CD16A V158/CD32B in experiment [5] was found to be 0.63.
The matching figures for “Immunoglobulin with variant Fc region K392T P396L D270E (antibody)”: 0.79, 2.28, 1.81, 2.89 and 2.29.
The matching figures for “Immunoglobulin with variant Fc region K392T P396L D270E F243L (antibody)”: 0.44, 2.44, 3.16, 5.55 and 7.18.
Taken in the same sequence, the figures for “Immunoglobulin with variant Fc region P247L N421K D270E (antibody)” were 0.58, 2.46, 1.89, 4.24 and 3.26.
“Immunoglobulin with variant Fc region P247L N421K D270E F243L (antibody)”: the Koff WT/Koff mutant in experiment [1] was 0.32; in experiment [2], 3.45; in experiment [3] it was 2.3. In addition, the Ratio of Affinities CD16A F158/CD32B in experiment [4] turned out to be 10.8. Besides, the Ratio of Affinities CD16A V158/CD32B in experiment [5] was found to be 7.19.
The matching figures for “Immunoglobulin with variant Fc region P247L N421K F243L (antibody)”: 0.17, 1.71, 1.89, 10.1 and 11.1.
As for “Immunoglobulin with variant Fc region P396L D270E (antibody)”, the Koff WT/Koff mutant came to 0.89 in experiment [1], 1.65 in experiment [2] and 1.38 in experiment [3]. For the same substance, the Ratio of Affinities CD16A F158/CD32B in experiment [4] worked out at 1.85. Also, the Ratio of Affinities CD16A V158/CD32B in experiment [5] was determined as 1.55.
For “Immunoglobulin with variant Fc region P396L F243L (antibody)”, the Koff WT/Koff mutant in experiment [1] turned out to be 2.22; in experiment [2] it was 1.6; in experiment [3], 1.49. Further, the Ratio of Affinities CD16A F158/CD32B in experiment [4] is 0.72. The Ratio of Affinities CD16A V158/CD32B in experiment [5] was 0.67.
The matching figures for “Immunoglobulin with variant Fc region Q419H P396L (antibody)”: 1.33, 1.19, 1.19, 0.89 and 0.89.
Take “Immunoglobulin with variant Fc region Q419H P396L D270E F243L (antibody)”: the values for the Koff WT/Koff mutant in experiment [1], in experiment [2] and in experiment [3] were 0.26, 1.15 and 1.46, respectively. In addition, the Ratio of Affinities CD16A F158/CD32B in experiment [4] stood at 4.42. The Ratio of Affinities CD16A V158/CD32B in experiment [5] was 5.62.
With “Immunoglobulin with variant Fc region R255L P396L (antibody)”, the Koff WT/Koff mutant in experiment [1] came out at 2.22; in experiment [2] it was 1.39; in experiment [3], 1.09. Further, the Ratio of Affinities CD16A F158/CD32B in experiment [4] was determined as 0.63. Besides, in experiment [5], the Ratio of Affinities CD16A V158/CD32B stood at 0.49.
